B2: Kog1 (Kog1-TAP) in the TOROID (natural protein, S. cerevisiae)
chain: MPEIYGPQPLKPLNTVMRHGFEEQYQSDQLLQSLANDFIFYFDDKRHKTNGNPIPEEDKQRDVNRYYQPITDWKIMKDRQKTVSAALLLCLNLGVDPPDVMKTHPCARVEAWVDPLNFQDSKKAIEQIGKNLQAQYETLSLRTRYKQSLDPCVEDVKRFCNSLRRTSKEDRILFHYNGHGVPKPTKSGEIWVFNRGYTQYIPVSLYDLQTWLGAPCIFVYDCNSAENILINFQKFVQKRIKDDEEGNHDVAAPSPTSAYQDCFQLASCTSDELLLMSPELPADLFSCCLTCPIEISIRIFLMQSPLKDSKYKIFFENSTSNQPFGDSKNSFKSKIPNVNIPGMLSDRRTPLGELNWIFTAITDTIAWTSLPRPLFKKLFRHDLMIAALFRNFLLAKRIMPWYNCHPVSDPELPDSITTHPMWKSWDLAMDEVLTKIVIDLKNAPPATALESQMILQQQETLQNGGSSKSNAQDTKAGSIQTQSRFAVANLSTMSLVNNPALQSRKSISLQSSQQQLQQQQQQQQQFTGFFEQNLTAFELWLKYASNVRHPPEQLPIVLQVLLSQVHRIRALVLLSRFLDLGPWAVYLSLSIGIFPYVLKLLQSPAPELKPILVFIWARIMSIDYKNTQSELIKEKGYMYFVTVLVPDWGVNGMSATNGSAMINSGNPLTMTASQNINGPSSRYYERQQGNRTSNLGHNNLPFYHSNDTTDEQKAMAVFVLASFVRNFPLGQKNCFSLELVNKLCFYIDNSEIPLLRQWCVILLGLLFADNPLNRFVCMNTGAVEILLKSLKDPVPEVRTASIFALKHFISGFQDAEVILRLQQEFEEQYQQLHSQLQHLQNQSHLQQQQSQQQQQHLEQQQMKIEKQIRHCQVMQNQLEVIDLRKLKRQEIGNLISILPLINDGSSLVRKELVVYFSHIVSRYSNFFIVVVFNDLLEEIKLLEKSDINTRNTSDKYSVSQGSIFYTVWKSLLILAEDPFLENKELSKQVIDYILLELSAHKELGGPFAVMEKFLLKRSSKAHQTGKFGFNSSQVQFVKSSLRSFSPNERVDNNAFKKEQQQHDPKISHPMRTSLAKLFQSLGFSESNSDSDTQSSNTSMKSHTSKKGPSGLYLLNGNNNIYPTAETPRFRKHTEPLQLPLNSSFLDYSREYFQEPQMKKQEADEPGSVEYNARLWRRNRNETIIQETQGEKKLSIYGNWSKKLISLNNKSQPKLMKFAQFEDQLITADDRSTITVFDWEKGKTLSKFSNGTPFGTKVTDLKLINEDDSALLLTGSSDGVIKIYRDYQDVDTFKIVSAWRGLTDMLLTPRSTGLLTEWLQIRGSLLTTGDVKVIRVWDAHTETVEVDIPAKTSSLITSLTADQLAGNIFVAGFADGSLRVYDRRLDPRDSMIRRWRAGNDKQGVWINNVHLQRGGYRELVSGATNGVVELWDIRSEDPVESFVDQNVTSQYGSQQKPTTMTCMQVHEHAPIIATGTKQIKIWTTSGDLLNSFKNSHNNGVTSTLAATGIPKSLSYSSTSDAFLSSMAFHPHRMMIAATNSHDSIVNIYKCEDERIDYF
notes: Kog1, S. cerevisiae, expressed as KOG1-TAP; source: S. cerevisiae KOG1-TAP ∆tor1 cells grown PDS, purified as TOROID

Common to all, as to assay: cryo-EM structure; TOROID filaments purified from KOG1-TAP ∆tor1 cells grown PDS (subunits co-purified from yeast); helical reconstruction, then signal subtraction and single particle analysis, 3.87 Å
Data set [1] has as its target B2. Particulars: both partners purified.
For the next data set, the target named is T1, Tor2 in the TOROID (S. cerevisiae (endogenous in S. …, UniProt P32600 1-2474)).
T1 construct: Tor2, S. cerevisiae; source: S. cerevisiae KOG1-TAP ∆tor1 cells grown PDS, purified as TOROID
T1 sequence (P32600 whole entry): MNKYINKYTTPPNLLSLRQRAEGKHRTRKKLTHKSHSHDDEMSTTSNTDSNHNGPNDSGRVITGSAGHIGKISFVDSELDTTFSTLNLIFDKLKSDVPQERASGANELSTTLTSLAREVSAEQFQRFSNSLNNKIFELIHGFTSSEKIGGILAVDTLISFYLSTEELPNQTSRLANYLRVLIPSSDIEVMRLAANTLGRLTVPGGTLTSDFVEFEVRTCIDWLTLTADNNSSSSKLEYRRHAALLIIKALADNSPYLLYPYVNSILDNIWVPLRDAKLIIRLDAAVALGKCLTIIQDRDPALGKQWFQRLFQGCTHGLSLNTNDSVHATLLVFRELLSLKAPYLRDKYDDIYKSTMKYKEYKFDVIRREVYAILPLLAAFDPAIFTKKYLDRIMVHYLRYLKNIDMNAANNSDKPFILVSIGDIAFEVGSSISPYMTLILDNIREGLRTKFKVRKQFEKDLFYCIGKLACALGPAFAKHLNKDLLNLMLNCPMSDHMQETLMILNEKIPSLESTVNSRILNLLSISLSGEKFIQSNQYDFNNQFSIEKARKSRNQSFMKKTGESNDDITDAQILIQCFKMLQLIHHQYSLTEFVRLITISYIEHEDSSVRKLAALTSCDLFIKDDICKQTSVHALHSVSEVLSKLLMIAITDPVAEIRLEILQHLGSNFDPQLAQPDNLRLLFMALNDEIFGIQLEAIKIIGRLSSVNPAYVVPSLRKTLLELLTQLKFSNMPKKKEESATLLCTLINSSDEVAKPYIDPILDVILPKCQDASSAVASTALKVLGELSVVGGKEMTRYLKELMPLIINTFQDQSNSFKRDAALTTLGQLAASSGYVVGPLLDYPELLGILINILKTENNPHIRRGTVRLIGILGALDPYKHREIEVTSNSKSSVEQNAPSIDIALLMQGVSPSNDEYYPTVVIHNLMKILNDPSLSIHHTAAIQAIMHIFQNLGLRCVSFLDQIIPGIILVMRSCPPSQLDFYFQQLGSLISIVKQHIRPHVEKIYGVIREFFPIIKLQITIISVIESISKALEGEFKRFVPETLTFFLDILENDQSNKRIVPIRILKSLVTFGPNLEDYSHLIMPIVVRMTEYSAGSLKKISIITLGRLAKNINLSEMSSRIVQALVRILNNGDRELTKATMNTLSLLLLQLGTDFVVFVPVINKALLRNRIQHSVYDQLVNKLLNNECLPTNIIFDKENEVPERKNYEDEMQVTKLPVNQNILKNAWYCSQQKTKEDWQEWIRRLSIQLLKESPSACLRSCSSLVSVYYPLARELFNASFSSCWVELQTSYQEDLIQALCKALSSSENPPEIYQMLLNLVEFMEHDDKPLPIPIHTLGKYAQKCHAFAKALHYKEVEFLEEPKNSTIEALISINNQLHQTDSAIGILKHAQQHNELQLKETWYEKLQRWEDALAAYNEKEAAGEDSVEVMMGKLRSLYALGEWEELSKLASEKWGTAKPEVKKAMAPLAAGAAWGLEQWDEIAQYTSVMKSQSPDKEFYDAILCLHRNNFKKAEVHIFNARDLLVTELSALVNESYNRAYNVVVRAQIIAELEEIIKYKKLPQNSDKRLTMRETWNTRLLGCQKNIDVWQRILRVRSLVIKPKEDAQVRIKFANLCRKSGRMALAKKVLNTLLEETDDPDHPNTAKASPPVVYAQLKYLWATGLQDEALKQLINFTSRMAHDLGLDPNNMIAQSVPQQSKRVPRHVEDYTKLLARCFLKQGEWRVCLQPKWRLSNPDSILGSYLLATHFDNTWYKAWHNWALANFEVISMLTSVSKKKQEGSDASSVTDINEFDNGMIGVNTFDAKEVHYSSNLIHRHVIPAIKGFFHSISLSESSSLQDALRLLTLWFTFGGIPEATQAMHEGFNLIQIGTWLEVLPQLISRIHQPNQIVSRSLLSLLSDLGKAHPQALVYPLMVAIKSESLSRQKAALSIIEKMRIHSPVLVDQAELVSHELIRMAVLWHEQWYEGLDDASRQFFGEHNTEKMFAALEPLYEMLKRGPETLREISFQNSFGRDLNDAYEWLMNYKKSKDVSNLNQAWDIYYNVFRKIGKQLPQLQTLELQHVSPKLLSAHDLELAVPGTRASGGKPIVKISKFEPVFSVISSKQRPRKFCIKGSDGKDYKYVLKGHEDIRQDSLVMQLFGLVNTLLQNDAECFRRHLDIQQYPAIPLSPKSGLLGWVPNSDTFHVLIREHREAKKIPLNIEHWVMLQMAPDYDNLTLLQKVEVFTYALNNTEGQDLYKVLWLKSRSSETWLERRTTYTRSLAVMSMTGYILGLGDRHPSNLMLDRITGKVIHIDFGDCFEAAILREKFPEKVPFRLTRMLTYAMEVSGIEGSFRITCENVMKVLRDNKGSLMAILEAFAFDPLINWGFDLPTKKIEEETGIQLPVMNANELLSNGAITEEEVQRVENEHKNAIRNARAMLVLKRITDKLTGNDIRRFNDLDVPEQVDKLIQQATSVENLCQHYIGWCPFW
Conditions: both partners purified.

Data set [2] concerns the molecule itself.

B1: Lst8 in the TOROID (natural protein, UniProt P41318 1-303, looked up)
chain: MSVILVSAGYDHTIRFWEALTGVCSRTIQHSDSQVNRLEITNDKKLLATAGHQNVRLYDIRTTNPNPVASFEGHRGNVTSVSFQQDNRWMVTSSEDGTIKVWDVRSPSIPRNYKHNAPVNEVVIHPNQGELISCDRDGNIRIWDLGENQCTHQLTPEDDTSLQSLSMASDGSMLAAANTKGNCYVWEMPNHTDASHLKPVTKFRAHSTYITRILLSSDVKHLATCSADHTARVWSIDDDFKLETTLDGHQRWVWDCAFSADSAYLVTASSDHYVRLWDLSTREIVRQYGGHHKGAVCVALNDV
notes: Lst8, S. cerevisiae; source: S. cerevisiae KOG1-TAP ∆tor1 cells grown PDS, purified as TOROID
On to B1, for which the binding result (in data set [1]; with Tor2 in the TOROID) was “binds” each time.

Turning to B2, the binding result (in data set [2]; with Tor2 in the TOROID) was “binds” in each case.
